{"source": "paper PMC3094545", "about": "(Structure (London, England : 1993), 2011)", "target": "the molecule itself", "test": "crystal structure"}
{"protein": "cytoplasmic domain of ZntB from Salmonella enterica serovar Typhimurium (domain or fragment) MEAIKGSDVNVPDAVFAWLLDGRGGVKPLEDNDVIDSQHPCWLHLNYTHPDSARWLASTPLLPNNVRDALAGESSRPRVSRMGEGTLITLRCINGSTDERPDQLVAMRLYMDERFIVSTRQRKVLALDDVVSDLQEGTGPVDCGGWLVDVCDALTDHASEFIEELHDKIIDLEDNLLDQQIPPRGFLALLRKQLIVMRRYMAPQRDVYARLASERLPWMSDDHRRRMQDIADRLGRGLDEIDACIARTGIMADEIAQVMQES", "values": [{"measurement": "stoichiometry N", "result": 5}]}
